Experimental data as given in the DeepSol protein solubility set.

Assay: soluble on expression in E. coli; label from the status in PepcDB or PDB records

Sequence | soluble on expression in E. coli
MFPIHYQFSIIHYPLKKEMKLNLKNPIVFFDLETTGTNINTDRIVEICYLKVYPNGNEETKTMRINPEMHIPEASSAVHGIYDADVADCPTFKEVAKNVARDIEGCDLAGFNSNRFDIPVLAEEFLRAGVDIDMTKRKFVDVQVIFHKMEQRTLSAAYKFYCEKSLEDAHTAEADTRATYEVLKAQLDRYPDLQNDIAFLAEYSSFTKNVDFAGRMVYDDNGVEVFNFGKYKGMSVAEVLKKDPGYYSWILNSDFTLNTKAVLTKIRLREMSNLITK | soluble
MFPKNAWYVACTPDELAGKPLGRRICDEPMVFYRGEDGRVAALEDFCPHRGAPLSLGFVEDGVLVCGYHGLAMGEDGRTRAMPGQRVRGFPCIRRFPVQERHGFVWVWPGAEEQADDALIPRLEWAESPDWAYGGGLYHIHCDYRLMIDNLMDLTHETYVHASSIGQKEIDEAAPTTRVEGDEVITSRHMQNVMAPPFWRMALRGNGLADDVAVDRWQICRFTPPSHVLIEVGVAHAGHGGYQAPAERKAASIVVDFITPESATSIWYFWGMARNFQAHDQALTESIREGQGKIFGEDLEMLESQQRNLLRHPRRDLLKLNIDAGGVQARRIIERLLADER | not soluble
MFQDVLVITVAVGRGGDGAVSFRREKFVPKGGPDGGDGGRGGSVYLRARGSVDSLSRLSKRTYKAEDGEHGRGSQQHGRGGEDLVIEVPRGTRVFDADTGELLADLTEEGQTVLVARGGAGGRGNMHFVSPTRQAPRFAEAGEEGEKRRLRLELMLIADVGLVGYPNAGKSSLLAAMTRAHPKIAPYPFTTLSPNLGVVEVSEEERFTLADIPGIIEGASEGKGLGLEFLRHIAGTRVLLYVLDAADDPFKTLKTLRKKVWAYDPGLLGRPSLVALNKVDLLEKEAVKALADALAREGLAVLPVSALTGAGLPALKEALHALVRSTPPPEMPKPVPRKEVQAGVEVVPVAEGVYEVRAPEVERYLARIKGDLMEAAGYLQEVFRRQGVEAALRAKGVRAGDLVRIGGLEFEYIPEV | soluble
MFQIIMTSTPKYSIILPTYNEKENLPICIWLIENYLKEVSHEVIIVDDASPDGTQGIAKLLQKEYGDDKILIKPRVGKLGLGTAYSHGLSFARGEFIILMDADLSHHPKFIPEMIALQHKYKLDIVTGTRYKDGGGVSGWDLKRKTISKGANFLAQFLLNPGVSDLTGSFRLYKRDILSKLIAESVSKGYVFQMEMMFRAKKSGYRIGEVPISFVDRFFGESKLGSQEIVDYAKGLLYLFAFVW | not soluble
MFQQQKDWETRENAFAAFTMGPLTDFWRQRDEAEFTGVDDIPVRFVRFRAQHHDRVVVICPGRIESYVKYAELAYDLFHLGFDVLIIDHRGQGRSGRLLADPHLGHVNRFNDYVDDLAAFWQQEVQPGPWRKRYILAHSMGGAISTLFLQRHPGVCDAIALTAPMFGIVIRMPSFMARQILNWAEAHPRFRDGYAIGTGRWRALPFAINVLTHSRQRYRRNLRFYADDPTIRVGGPTYHWVRESILAGEQVLAGAGDDATPTLLLQAEEERVVDNRIHDRFCELRTAAGHPVEGGRPLVIKGAYHEILFEKDAMRSVALHAIVDFFNRHNSPSGNRSTEV | soluble
MFQQQKDWETRENAFAAFTMGPLTDFWRQRDEAEFTGVDDIPVRFVRFRAQHHDRVVVICPGRIESYVKYAELAYDLFHLGFDVLIIDHRGQGRSGRLLADPHLGHVNRFNDYVDDLAAFWQQEVQPGPWRKRYILAHSMGGAISTLFLQRHPGVCDAIALTAPMFGIVIRMPSFMARQILNWAEAHPRFRDGYAIGTGRWRALPFAINVLTHSRQRYRRNLRFYADDPTIRVGGPTYHWVRESILAGEQVLAGAGDDATQTLLLQAEEERVVDNRMHDRFCELRTAAGHPVEGGRPLVIKGAYHEILFEKDAMRSVALHAIVDFFNRHNSPSGNRSTEV | not soluble
MFREESRSVPVEEGEVYDVTIQDIARQGDGIARIEGFVIFVPGTKVGDEVRIKVERVLPKFAFASVVE | soluble
MFRRARPLRKTTRINGLERNGLKRSGRGWNAPGADVLARHCPLLPGRADAIGRGRLIVATWPKSAAKQRQNVPPARSRTRWRSMSSCHRSGPQKRGRDSGAVTAVTGAPNGQATAFVSLNDEVDAVAAAANLWVRAKSPLHGHAEHLRCEARLATFGARRQRQRVRGRARPECPRRRRSAMADMPPSAP | not soluble
MFRVLHLADLHLGYRPDLPAPVREEVYRARNRVLQAAVDLALDPRQGISLVLIAGDLFDNHRPEASLVEETIRQLTRLEAAGIQVITVPGNHDEITYNDAVYRREAGRWPGLLVTDPMPAKVATLKVKGDTCHLMAMAYTGGVTRVDGPLKAFPPAEGEGVNLAVFHGSLDWDGGERSLPLDGEALAAAGYDYIALGHIHRGGQRRLGRGLAVYAGMVAGKGFADPGTGSWTIVTLGDGPARVEQVPARVTPWRLVDLDVTAFQEPEELETAVRDALDPLEHHHHHH | not soluble
MFSIFMRIPDTAQVDAVFSGAYASIEQGLCYDEVNDWENTLAMYEKGLNLIVEGEKMKNARKSEMWKMLQESKSSVQHRINVLKKEGPKQPTPKKIKEAEESVENEKEAIRMQLDSFGSQEADLIYFLPEGVQLFTIDGEKTTAPTAPTSLQILRFPQPTDGGASSDTLAFMQVGPWAYPLMGAKTPVLRNEFGAYLVANPTPENPNMTVAILLSSDIERRLIEELHIVLREFTDFKEQAEPSTELSKEEKNRISTTISNFLIKGGQKIAWGVETTTVRVISRVEDNGEQYRTTLIATDKPMQVSPVIKGSVVYMHKGTKTVAKCTRYLLDKIGDMGVSMGKKLADSAQRRFGDGKSGGLVSGTIEILGGGITGVATVWMSLEDGSRHLCRSIANQTVQNVKLKYGDDASDTTHHALFAAGHGTLAAAQLWDLGPRSVAGRMARKAGIQMVSDLHHSRKGSRLDQEVPALELKKAV | not soluble
MFSVRRYRHKRNSLNIDTREITLEPADNARLLSLCGPFDDNIKQLERRLGIEINRRDNHFKLTGRPICVTAATDILRSLYVDTAPMRGQTQDIEPEQIHLAIKEARVLEQSAESVPDYGKAINIKTKRGVIKPRTPNQAQYIANILDHDITFGVGPAGTGKTYLAVAAAVDALERQEIRRILLTRPAVEAGEKLGFLPGDLSQKVDPYLRPLYDALFEMLGFEKVEKLIERNVIEVAPLAYMRGRTLNDAFIILDESQNTTIEQMKMFLTRIGFNSKAVITGDVTQIDLPRNTKSGLRHAIEVLAEVDEISFNFFHSEDVVRHPVVARIVNAYEAWEEAEQKRKAALAAERKREAQEQEQK | not soluble
MFVRICAMFGFVSDLLTAAVSSLDELLQDTPAHQIILGTAALYFLYNQYHNPSISRWYRSRNNASMKQRIIDSAYALAKNLPGVNQIIEKELNKELSSTREKLRIQRSGMTLREEIPEEGLSPQDILSAFDVDVEKCHFDFLSVTNDSPEREFLVERGDGKDSGALYAIHPKELTELLKEVYGATALTNPLHDKWPRINAMQAEVIRWCQNLFHGSKECYGLLTHGGTTSIIEAMAAYVIRARAKGIDYPEIVVPETAHAAFKKAAELTGAILITVPVDKKTGAVNPKVMSSYITRNTAVIVGSAPSFMNGIHDPVSELGQLAKKKNVPFHVDACLGGFLTAFLDTSSEPMDFRVPGVTSISADLHKYGCCPKGTSVCLFSEDSPALSVYAALNWSGGLYATPGILDGSTSGARVAEVYATLSYYGKNKYQEIAKSIITLRNAIQKELTTLLEEGNGLTSEDIYVYGNPQWSILGFRSNTCNAHFIADELEKRGWKLNLLQNPDGFHLCLTHVHTLVKGFETQFIKDLREAVIDVKNYPPGKKPSGNVKVYGAVGMMPIELQREICKQYQKARLNYTSASPGSLRIFTNVPVEEDEGLRNRKTEKYKV | not soluble
MFVRSLFLALLLATIVAADIDFSTCARMDVPILKKAAQGLCITSCSMQNCGTGSCKKRSGRPTCVCYRCANGGGDIPLGALIKRG | not soluble
MFYRDVLIESRERNIFMSKELQIRNSTVDFLVFTRDAREDGIEVRVQNGDVWLTQKAISQLFDVDRSVVTKHLSNIFKEGELDENSTCANFAQVADNGKTYNYKFYSLAAIIAVGYRINSERAMQFRTWATKVLDTFTKQGYVLDKSRLINGQIFDEDYFEHLIAEIQEIRASERRFYQKITDIYATAVDYDKNSQVTREFYATVQNKMHYAVHGNTAAEVIVARANHNKKHMGLKSWKNAPDGKIVKTDVSIAKNYLEKEELAELNEIVTMYLDYATRQARRHIPMTMEDWKTKLDAFLRFNDAEVLQDKGKVTAAIAKEFAESEFEKYRVIQDSLYESDFDKLMNDMEKNDAIH | not soluble
